Common to all, as to test: cell_activity
Data set [1] deals with nlsCre recombinase from intron-containing gene (inlscre) S2A (Bacteriophage P1). The following applies: pBS210 excision in Nicotiana plumbaginifolia protoplasts, 72 h; also in planta excision in tobacco from pBS229.
The subject of data set [2] is nlsCre recombinase S2A (Bacteriophage P1). To be noted: pBS210 excision in Nicotiana plumbaginifolia protoplasts, 72 h; pBS210 alone 0.
In data set [3] the test system is Cre recombinase S2A (Bacteriophage P1). The following applies: pBS210 excision in Nicotiana plumbaginifolia protoplasts, 72 h; pBS210 alone 0.

Consider “loxP sites in direct repeat (pBS210, pBS229)”, for which the activity (GUS units/25 ug protein) in data set [1] came to 51; in data set [2], 141; in data set [3] it was 133.

The record behind these values is US20020147168.
